Protein production data for 21 sequences are collected here from a protein production outcome set (Wang et al. 2014).

The data set can be described thus: label from the status in PepcDB records.

For the sequence “MSIKYLYDRKKIAVTYGEEKYSYADIIKYVNYYSEFLDISKGDRVALMMENRPESIFSFFSIWAKKGIALSLDAGYTVEQLAFVLNDSKPKYIFVSNKIKEVVEKANEQVGNIVKIMVVDEITLPTDYVIKQEEYENDSNEDLAVIVYTSGTTGNPKGVMITYENIKTNMEGVRAVDLVTETDVILAMLPYHHIMPLCFTLILPMYMGVPIVLLTEISSASLLKALQENRVTVILGVPRVWEMLDKAIMTKINQSSLAKFMFKMASKINSMSIRKMLFSKVHKQFGGNIRLMVSGGAKIDKNILEDFRTMGFCAIQGYGMTETAPIITFNVPGRERSDSAGEVIPNVEVKIADDGEILVKGKNVMKGYYNNEQATKEAFDKDGWFHTGDLGKMDGKYLIIIGRKKEMIVLPNGKNIDPNDIEAEIIKNTDLIKEIAVTEYKEQLLAIIYPDFDQIKAKQIVNIKDAIKWEVIDKYNVTAPNYKKIHDIKIVKEELPKTRIGKIRRFMLKDLIEEKTENTDKKEAKKIIEVPAEMKEKFDIINKYMDERYQKAIDLDSHIELDLGFDSLDIVEFMNFLNSTFEITIVEQDFVENKTISAIIKLINDKAGKLVEKIDKNENLKKIIESDSNVKLPKDARYAKVLKFILSLMFRYYFKYKYRGKENLGEGAGIIVGNHQSYLDAFMLNNAFTYKELGGNYYIATALHFKSNFMKYLAGHGNIILVDANRNLKNTLQAAAKVLKSGKKLLIFPEGARTRDGQLQEFKKTFAILSKELNVPIYPFVLKGAYEAFPYNKKFPKRNNISVQFLEKIEPNDKTVEELVEETKNNIAKNYY”, the protein production result is listed as “failed”.
Regarding “MSILDILILLAPIFFVIVLGWFAGHFGSYDAKSAKGVSTLVTKYALPAHFIAGILTTSRSEFLSQVPLMISLIIGIVGFYIIILLVCRFIFKYDLTNSSVFSLNSAQPTFAFMGIPVLGSLFGANEVAIPIAVTGIVVNAILDPLAIIIATVGESSKKNEESGDSFWKMTGKSILHGLCEPLAAAPLISMILVLVFNFTLPELGVKMLDQLGSTTSGVALFAVGVTVGIRKIKLSMPAIGIALLKVAVQPALMFLIALAIGLPADQTTKAILLVAFPGSAVAAMIATRFEKQEEETATAFVVSAILSLISLPIIIALTA”, the protein production result is “failed”.
Consider “MSIPFSNTHYRIPQGFGNLLEGLTREILREQPDNIPAFAAAYFESLLEKREKTNFDPAEWGSKVEDRFYNNHAFEEQEPPEKSDPKQEESQISGKEEETSVTILDSSEEDKEKEEVAAVKIQAAFRGHIAREEAKKMKTNSLQNEEKEENK”, for which the protein production result was “failed”.
As to “MSIPLLEYKPSSQNQRVPGYEVPNEDTPRIYRIEDAAYDSELKELIWATYRQVFSEHVILKFFRQGNLESQLKNRAISVRDFVRGLAKSEAFKTLVIKSNSNYRLVELALKRLLGRAPYNKDEEIAWSIKIATNGWDGFVDALLDSEEYQSNFGENIVPYQRRRYKDRPFNLVTPRYGNYWRDKLESERYIEGDIKNFLELAKSIEIKTVTFTPVSTANIKIPDTTRNTTPTGIPISVNPSANFPVRLEHHHHHH”, the protein production entry is recorded as “failed”.
As for “MSIQAPPRLLELAGQSLLRDQALSISAMEELPRVLYLPLFMEAFRRRHFQTLTVMVQAWPFTCLPLGSLMKTLHLETLKALLEGLHMLLTQKDRPRRWKLQVLDLRDVDENFWARWPGAWALSCFPETMSKRQTAEDCPRMGEHQPLKVFIDICLKEIPQDECLRYLFQWVYQRRGLVHLCCSKLVNYLTPIKHLRKSLKIIYLNSIQQLEIRNMSWPRLIRKLRCYLKEMKNLRKLVFSRCLQNPLENLELTYGYLLEEDMKCLSQYPSLGYLKHLNLSYVLLFRISLEPLGALLEKIAASLETLILEGCQIHYSQLSAILPGLSHCSQLTTFYFGRNCMSMGALKDLLCHTSGLSKLSLETYPAPEESLNSLVRVDWEIFALLRAELMCTLREVRQPKRIFIGPTPCPSCGSSPSEELELHLCC”, the protein production entry was “failed”.
Regarding “MSIRNPNSTLLYRAHSRPPVKLCAPPRSLLPSRRHFSAPRAVVSYPGIRFGFTSPEVLLNRSVVAFAASHEDSGESGVEVGKEKSDIDVEDDTSKEAWKQTLESFKEQVSKMQSVSSEAYSVNSQKAMTVLKETSEQLRIQAEKAKEELGTKAKVVSEEGREYILKAAEESPSDVKEIVEAFASTEDLKNVSRANDFHVGIPYGLLLLVGGFINFMVSGSIPAIRFGVILGGALFALSLASLKSHRKGESSTKFLKGQMAIVAIIFLRELRLLLSQKSTFLGFFTTLTSGGVLGFYLYKMVVKREKGPTLEDGGEDESSDGFVRSEG”, the protein production entry is “failed”.
Take “MSIRPATHAGSWYSNRAQELSQQLHTYLIKSTLKGPIHNARIIICPHAGYRYCGPTMAYSYASLDLNRNVKRIFILGPSHHIYFKNQILVSAFSELETPLGNLKVDTDLCKTLIQKEYPENGKKLFKPMDHDTDMAEHSLEMQLPMLVETLKWREISLDTVKVFPMMVSHNSVDVDRCIGNILSEYIKDPNNLFIVSSDFCHWGRRFQYTGYVGSKEELNDAIQEETEVEMLTARSKLSHHQVPIWQSIEIMDRYAMKTLSDTPNGERYDAWKQYLEITGNTICGEKPISVILSALSKIRDAGPSGIKFQWPNYSQSSHVTSIDDSSVSYASGYVTIG”: the protein production entry was “failed”.
The value for “MSIVIVGGNERMVCQYEDICKGYGCKAKVFAKEKGAMKKKIGAPDLMILFTGTVSHKMVNCAVEEAKKKSIPVCRCHTSSASALESILREYCALEHHHHHH” was “failed”.
Consider “MSIYNSIGKQYSQTRVPDIRIVNAIINLLNLPKGSVIADIGAGTGGYSVALANQGLFVYAVEPSIVMRQQAVVHPQVEWFTGYAENLALPDKSVDGVISILAIHHFSHLEKSFQEMQRIIRDGTIVLLTFDIRLAQRIWLYDYFPFLWEDALRFLPLDEQINLLQENTKRRVEAIPFLLPHDLSDLFAAAAWRRPELYLKAEVRAGISSFALANQDLVEKGLELLTADLNNGEWIRKYGEIHHLQEIDIGYRFIYTTLDK”, for which the protein production result was “not failed”.
The same measure for “MSKANVYQQRPEPGVHAESPLHHAELHKLAGKTAAKAGIVLREKKLLGHLVLRGDAADPAFAAAVHQALGLELPVALTLVASGETSLQWLAPDEWLLIVPGGEEYAVEQRLRQALGEELHYAVVNVSGGQTLLELSGANVRELLMKSTSYDVHPSNFPVGKAVGSIFAKSQCVIRHTGEDTWELVVRRSFADYFWLWLQDASAEYGLQVAA”: “failed”.
For the sequence “MSKAQKRKRLNKYDGESKTPANKSTVDGGNPYPTLLRPTAEECRDVRDALLSLHGFPPEFANYRRQRLRSFSAVDDHDTQCNLKSETLNETEEESVLDGLVKILLSQNTTESNSQRAFASLKATFPKWDDVLNAESKSIENAIRCGGLAPKKAVCIKNILNRLQNERGRLCLEYLRGLSVEEVKTELSHFKGVGPKTVSCVLMFNLQHNDFPVDTHVFEIAKALGWVPKTADRNKTYVHLNRKIPDELKFDLNCLLYTHGKICSNCKKNVAKPKAKVASPDDCPLVGFYDLIV”, the protein production result is “failed”.
The value for “MSKAVLTTKVTPGYKDLPEVRYHFPRTYLNQVRQAVGDYILYYEPRRTTVELSSFGGRQSYFGVARVVDLVEDKDQADHYYALVDDYLDFDRPVPFVEGGHYYESALRKSDGSTNKGAFGRAVRLIPDAEFDQIWKAGFAPILGEETSRHQPRQFEISEPTVPFERPIIEMTISRPFRERSFMYNVRAAYENRCAMTGLRLINGGGRPEVQAAHIQPVAEKGPDSVRNGLALSGTVHWMFDRGLISIGDDYKILTAENHVPDDALRLLNHSRTINLPNDTAFYPNALFLKFHRDKIFKG” was “failed”; that for “MSKDFDLIIRNAYLSEKDSVYDIGIVGDRIIKIEAKIEGTVKDEIDAKGNLVSPGFVDAHTHMDKSFTSTGERLPKFWSRPYTRDAAIEDGLKYYKNATHEEIKRHVIEHAHMQVLHGTLYTRTHVDVDSVAKTKAVEAVLEAKEELKDLIDIQVVAFAQSGFFVDLESESLIRKSLDMGCDLVGGVDPATRENNVEGSLDLCFKLAKEYDVDIDYHIHDIGTVGVYSINRLAQKTIENGYKGRVTTSHAWCFADAPSEWLDEAIPLYKDSGMKFVTCFSSTPPTMPVIKLLEAGINLGCASDNIRDFWVPFGNGDMVQGALIETQRLELKTNRDLGLIWKMITSEGARVLGIEKNYGIEVGKKADLVVLNSLSPQWAIIDQAKRLCVIKNGRIIVKDEVIVA” was “not failed”.
The same measure for “MSKELLGVSAVGLMVLGEFCAIYSEVVVARLAHSGNTSGAELALPVLIMCLGGICLLAAYWLGYVAVGDIWIITVVSVTSLLLLEPLVIWALFQQAPGRGALIGFCLGALGMLSAVFL”: “failed”; for “MSKFTDRIKNVFTVDYDDYDEDYYDDYEDDDMGLEPEKPEKKERATKSRSERFSARRAATRSDDDIIDDYDEVTAEHEEEPAPHVKTRATARAVKNSRSSRNHKVVPMKSSSEMEVCVIKPSYYENTRDIIDTLLEGKSVVLNLEGMKLDLAQRIVDSVSGGCYAIQGNLQKISGYIYLVTPHSVDITGDFQDLVHDSSDYSSTAYSRRNY”: “failed”.
The value for “MSKGRDILTKTIILALREVAPGLEAVLEAHLRATLNSGIELAYDDPQKFKEAVSKLFGEYSARLLEMVIISKLKGRLGEDIEANSLEELVSEIRKIYGE” was “not failed”; that for “MSKHVNWSGVFPAVTTQFNADFSVNLEETHTVISNLVRDGVSGLVVCGSVGENTSLTIEEKMAVTEVAKDASGGRVPVICGIAEFTSAGAAKVAKAVERVGVDGIMVMPALVYSSKPHETAEHFRSVASGTDLPVMVYNNPPIYRNDVTPDILVSLADCENIVCFKDSSGDTRRFIDVRNQVGERFILFAGLDDVVLESVAVGAQGWISGMSNVFPKEGETIFRLARAGRFAEAMPIYEWLMPILHLDARPDLVQCIKLCEQLAGRGSALTRPPRLALRGADREHVERIMAKALA” was “failed”; that for “MSKIFVNPSAIRAGLADLEMAEETVDLINRNIEDNQAHLQGEPIEVDNLPEDMGRLHLDDGKSPNPGEMAKVGEGKYREDFQMDEGEDPSLLFQSYLDNVGVQIVRQIRSGERFLKIWSQTVEEIISYVAVNFPNPPGKSSEDKSTQTTGRELKKETTPTPSQRESQSSKARMAAQTASGPPALEWSATNEEDDLSVEAEIAHQIAESFSKKYKFPSRSSGILLYNFEQLKMNLDDIVKEAKNVPGVTRLARDGSKLPLRCVLGWVALANSKKFQLLVESNKLSKIMQDDLNRYTSC” was “not failed”.
On to “MSKILLTGASGYIGSHLKNKLKKDHEVIAISRNTHNKTDEENVTWKSADLFDLDEITKVMKDVDTAIYLVHSMMPSAKLTQASFEDMDALLADNFARAAQKQGVKHIVYMSGLIPENDELSAHLRSRLECEKILGDYGIPVSTLRAGLIIGAKGSSYPILKRLVKRLPAMVLPSWAYNKIAPVAIDDVIDGLAALVNRTPKDNEAIDITGPEVMNYKTLIQRTANVLDKRLPMLDLPIIPIIVSRYWVQLISNVPKEMVYPLMNSLTHDMVPHRKRVVSNLSVGNITFEDSVKRALREEQKTSKKKSDSKNSQSFGRMHQEIKDVRAITRFKIPEGYSIKDVTKEYAKFINNITLHLVKGTINEREFNMNLPFINKFILKMERDEADSTEDMVVYNIVGGDLAHSNDGGNARFEFRRIRNTNEGIIALQEYEPTLPWVVYKLTQAKAHKTVMNIFKNKMARLAQQKNVKDETYMSNRVTIGVTVASAFVIGSAVGFQLFKKHQIKKNTMSNAEL”, for which the protein production entry was “failed”.
Take “MSKKIILITGASSGFGRLTAEALWSRPPGIRLDARHCRPQRVQCSPALPGTMTLTCAPWSSTSSRRSVDRAIDQIIGEDGRIDVLIHNAPHGVRTRRSIHARAVRRALRYQCAPNASTGRRCRTCAGKSMGFSWISSSSSAGGTPPYLAPYFAAKAHGCHRCAVRTAVALGHRDVDHRPVPSRAAPITSPIPAYRTTTPAAEYEAGPNAGLGEEIKKAFAAIVAGRRCVTGCRCHCSGCGHRVRQARSGCTSTRPKTAPMWDSAFWTGRAEMLHRVGLSDLLKPRALA”: the protein production result is recorded as “not failed”.
As for “MSKKKILIFISVILIIFGGVYLKMKYDEKAKQKEIYYKEQQERITLYLKYNTKKPNTIKSVHFTSLEQGPMGDAIIEGYINNNKEDEFVAFASPENNYQFGGGLTADVKIFKLLKPANESRSPNEIKKDLDKKKERLEHHHHHH”, the protein production entry is on record as “not failed”.
